From US20210270842A1 (DYAX, published 2021)

T1: intact high molecular weight kininogen (HMWK) (Homo sapiens, UniProt P01042 19-644)
T1 construct: also called intact HMWK; 1-chain HMWK
T1 sequence: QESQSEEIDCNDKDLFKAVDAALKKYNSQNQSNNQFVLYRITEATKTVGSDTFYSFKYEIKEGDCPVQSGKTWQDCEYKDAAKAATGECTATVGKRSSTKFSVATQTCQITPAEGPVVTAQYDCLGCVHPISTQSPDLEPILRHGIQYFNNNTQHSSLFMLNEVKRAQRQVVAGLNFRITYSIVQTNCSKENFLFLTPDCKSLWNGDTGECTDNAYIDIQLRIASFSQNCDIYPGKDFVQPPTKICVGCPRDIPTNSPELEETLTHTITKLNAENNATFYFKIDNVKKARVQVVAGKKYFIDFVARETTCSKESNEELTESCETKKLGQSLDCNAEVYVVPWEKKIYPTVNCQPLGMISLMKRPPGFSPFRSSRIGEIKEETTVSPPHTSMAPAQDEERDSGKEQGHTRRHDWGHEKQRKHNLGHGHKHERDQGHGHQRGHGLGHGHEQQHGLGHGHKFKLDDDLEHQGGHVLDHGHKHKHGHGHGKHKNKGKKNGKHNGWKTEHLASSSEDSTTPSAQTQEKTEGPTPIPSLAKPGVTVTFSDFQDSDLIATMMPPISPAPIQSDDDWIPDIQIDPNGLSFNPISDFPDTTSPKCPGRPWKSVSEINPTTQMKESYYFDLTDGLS

B1: 559B-M0070-H10 (Fab, V domains shown)
VH: EVQLLESGGGLVQPGGSLRLSCAASGFTFSTYGMRWVRQAPGKGLEWVSVISPSGGKTNYADSVKGRFTISRDNSKNTLYLQMNSLRAEDTAVYYCARGRPDYYAMDVWGQGTTVTVSS
VL: QSALTQPPSASGAPGQRVTISCSGSSSNIGSNTVNWYQKLPGTAPKLLIYYNDRRPSGVPDRFSGSKSGNTASLTISGLQAEDEADYYCAAWDDSLSGPVFGGGTKLTVL
notes: also called M070-H10
B2: 559B-M0064-H02 (Fab, V domains shown)
VH: EVQLLESGGGLVQPGGSLRLSCAASGFTFSQYIMGWVRQAPGKGLEWVSSIGSSGVTVYADSVKGRFTISRDNSKNTLYLQMNSLRAEDTAVYYCARGGGVTVLHAFDIWGQGTMVTVSS
VL: QSALTQPASVSGSPGQSITISCTGTSSDVGGYNYVSWYQQHPGKVPKLIIYEGNKRPSGVPDRFSGSKAGNTASLTVSGLQAEDEADYYCTAYGGHSRFYVFGTGTKVTVLG
notes: Purified recombinant Fab; …GQPKANP)
B3: 559B-M0068-D01 (Fab, V domains shown)
VH: EVQLLESGGGLVQPGGSLRLSCAASGFTFSIYPMSWVRQAPGKGLEWVSGISPSGGKTAYADSVKGRFTISRDNSKNTLYLQMNSLRAEDTAVYYCARGQGRAVRGKLYYYGMDVWGQGTTVTVSS
VL: QSALTQPPSASQTPGQTVTISCSGSSSNIGTNNVNWYQQLPGTAPKLLISSHHRRPSGVPDRFSASKSGTSASLAISGLQSEDEADYYCAAWDDSLNGPVFGGGTKLTVL
B4: 559B-M0054-B11 (Fab, V domains shown)
VH: EVQLLESGGGLVQPGGSLRLSCAASGFTFSYYGMNWVRQAPGKGLEWVSVISPSGGLTVYADSVKGRFTISRDNSKNTLYLQMNSLRAEDTAMYYCATGFAVQHGGGAFDIWGQGTMVTVSS
VL: DIQMTQSPATLSMSPGERATLSCRASQSVTTYLAWYQQKPGQAPRLLIYDASIRATGVPARFSGSGSGTDFTLTISRLEPEDFAVYYCQQRTIWPLTFGGGTKVEIK
B5: 559B-M0043-C06 (Fab, V domains shown)
VH: EVQLLESGGGLVQPGGSLRLSCAASGFTFSAYAMRWVRQAPGKGLEWVSYISSSGGETMYADSVKGRFTISRDNSKNTLYLQMNSLRAEDTAVYYCANGYGRIDYWGQGTLVTVSS
VL: QSVLTQPASVSGSPGQSITISCTGTSSDIGGYNYVSWYQQHPGKAPKLMIYEVSNRPSGVSNRFSGSKSGNTASLTISGLQAEDEADYYCSSYTSGSTRVFGTGTRVTVL
B6: 559B-M0069-C09 (Fab, V domains shown)
VH: EVQLLESGGGLVQPGGSLRLSCAASGFTFSMYDMHWVRQAPGKGLEWVSSISSSGGYTQYADSVKGRFTISRDNSKNTLYLQMNSLRAEDTAMYYCARDRGLIAAAGGFDPWGQGTLVTVSS
VL: DIQMTQSPSSLSASVGDRVTITCRASQSIGIYLNWYQQKPGTAPKLLIYAASSLQSGVPSRFTGSGSGTDFTLTISSLQPDDFATYYCQRTYGRPLTFGGGTKVEIK
B7: 559B-M0035-F05 (Fab, V domains shown)
VH: EVQLLESGGGLVQPGGSLRLSCAASGFTFSHYPMAWVRQAPGKGLEWVSGIVSSGGRTVYADSVKGRFTISRDNSKNTLYLQMNSLRAEDTAVYYCARDPYDFWSEGAFDIWGQGTMVTVSS
VL: QSVLTQPPSASGTPGQRVTISCSGSSSNIGNNFVYWYHQVPGTAPKLLIYKNNQRPSGVPDRFSGSKSAASASLAISGLRSEDEADYYCAAWDNSLSGFYVFGAGTKVTVL
B8: 559B-M0065-B10 (Fab, V domains shown)
VH: EVQLLESGGGLVQPGGSLRLSCAASGFTFSKYFMTWVRQAPGKGLEWVSWISSSGGYTNYADSVKGRFTISRDNSKNTLYLQMNSLRAEDTAVYYCARGAYYYDAFDIWGQGTMVTVSS
VL: DIQMTQSPSSLSASVGDRVTITCRASQSIAIFLNWYQQTPGKPPKLLIYGASTLQSGVPSRFSGSGSGADFTLTISNLQLEDFTTYYCQQSYSTLYTFGQGTKLEIK
B9: 559B-M0035-H09 (Fab, V domains shown)
VH: EVQLLESGGGLVQPGGSLRLSCAASGFTFSWYGMHWVRQAPGKGLEWVSRIGPSGGPTSYADSVKGRFTISRDNSKNTLYLQMNSLRAEDTAVYYCARGYYGTGRYFQHWGQGTLVTVSS
VL: DIQMTQSPDSLSLSPGDRATLSCRASQSVGSDYLAWYQQKPGQAPRLLIYDASNRATGIPARFSGSGSGTDFTLTISSLEPEDFAVYYCQQRSNWPPTFGGGTKVEIK
B10: 559B-M0004-E08 (Fab, V domains shown)
VH: EVQLLESGGGLVQPGGSLRLSCAASGFTFSMYHMNWVRQAPGKGLEWVSSIYSSGGSTRYADSVKGRFTISRDNSKNTLYLQMNSLRAEDTAVYYCARGVRYGMDVWGQGTTVTVSS
VL: DIQMTQSPSSVSASVGDRVTITCRASQGISSWLAWYQQKPGKAPKLLIYAASSLQSGVPSRFSGSGSGTDFTLTISSLQPEDFATYYCQQANSFPITFGQGTRLEIK
B11: 559B-M0039-G07 (Fab, V domains shown)
VH: EVQLLESGGGLVQPGGSLRLSCAASGFTFSRYRMRWVRQAPGKGLEWVSGISPSGGWTYYADSVKGRFTISRDNSKNTLYLQMNSLRAEDTAVYYCTTDNGDYALAHWGQGTLVTVSS
VL: DIQMTQSPSSLSASVGDRVTITCRASQRIINYLNWYQQKPGKAPKLLIYAASSLQSGVPSRFSGSGSGTDFTLTISSLQPEDFATYYCQQSYSAPLTFGGGTRVEIK
B12: 559B-M0003-A08 (Fab, V domains shown)
VH: EVQLLESGGGLVQPGGSLRLSCAASGFTFSAYVMRWVRQAPGKGLEWVSSIGSSGGPTYYADSVKGRFTISRDNSKNTLYLQMNSLRAEDTAVYYCARRGGSGSSHAFDIWGQGTMVTVSS
VL: DIQMTQSPSSLSASVGDRVTITCRASQSISSYLNWYQQKPGKAPKLLIYAASSLQSGVPSRFSGSGSGTDFTLTISSLQPEDSGTYYCQQYNSFPLTFGGGTKVEIK
B13: 559B-M0067-G11 (Fab, V domains shown)
VH: EVQLLESGGGLVQPGGSLRLSCAASGFTFSPYEMVWVRQAPGKGLEWVSSIVPSGGWTVYADSVKGRFTISRDNSKNTLYLQMNSLRAEDTAVYYCASPSGRGLAFDIWGQGTMVTVSS
VL: DIQMTQSPGTLSLSPGERATLSCRASQSISSSYLAWYQQKPGQAPRLLIYGASSRATGVPDRFSGSGSGTEFTLTISSLQPEDFATYYCLQQKSYPYTFGQGTKVEIK

Molecular target: T1, intact high molecular weight kininogen …
Assay: Fab passively immobilized on 384-well plate, biotinylated antigen, streptavidin-HRP
From the text: A: plots the ratio of the result of a 2-chain HWMK binding assay to a LMWK binding assay on the y-axis compared to the ratio of the result of a 2-chain HMWK binding assay to a 1-chain HMWK binding assay on the x-axis for each antibody (Fab) tested. Recombinant Fab fragments were passively immobilized onto 384-well plates prior to addition of biotinylated 2-chain HMWK, 1-chain HMWK, or LMWK, followed by streptavidin-HRP.
The depleted library was then contacted with biotinylated 2-chain HMWK immobilized on streptavidin coated magnetic beads. The beads were extensively washed with PBS buffer and used to infect E. coli for phage output amplification to complete a round of selection. Three rounds of selection were performed prior to screening individual phage colonies by ELISA with biotinylated 1-chain and 2-chain HMWK immobilized on streptavidin coated plates followed by detection with horse radish peroxidase (HRP) conjugated anti-M13 antibody and absorbance detection due to substrate hydrolysis for 3,3′,5,5′-Tetramethylbenzidine (TMB). […] The specificity of each purified Fab was determined by coating 384 well plates and measuring binding to biotinylated 1-chain HMWK, to biotinylated 2-chain HMWK, or to biotinylated LMWK, followed by detection with streptavidin conjugated to HRP and TMB detection.

Binder | binding result
B1 | binds
B2 | binds

Molecular target: T1, intact high molecular weight kininogen …
Assay: ELISA: Fab coated on 96-well plate, LowCross block, biotinylated antigen, streptavidin-HRP; signal over uncoated well
Description: Thirty-six purified Fab clones (see Table 2 below) were assessed for binding to cleaved HWMK, intact HMWK, and LWMK using the immunoassay described in Example 1. Specifically, each of the purified Fab clones was immobilized on 96-well assay plates at a concentration of […]) in a total volume of 100 μL in PBS and incubated overnight at 2-8° C. The assay plates were blocked using LowCross blocking buffer. Biotinylated intact HMWK, biotinylated cleaved HMWK or biotinylated LMWK ([…]) was added to each well in a total volume of 100 μL and incubated for 2 hours prior to washing with a wash buffer. HRP-labeled streptavidin was added to each well at a concentration of 100 ng/mL, and the signal was developed using Ultra TMB Substrate. The signal to noise ratio was calculated using the signal observed upon the addition of the biotinylated protein to an uncoated well. (FIG. 2, panels A and B). Based on the ELISA results, the antibodies can be divided among 5 categories (Table 2).

Binder | binding result
B3 | binds
B4 | binds
B5 | binds
B6 | binds
B7 | binds
B8 | binds
B9 | binds
B10 | binds
B11 | binds
B12 | binds
B13 | binds
